# Patent publication US20220348635A1, “COMPOSITIONS AND METHODS FOR NEUROLOGICAL DISEASES” (Coda Biotherapeutics, Inc., priority 2019, published 2022)
# Legend:
# Format in all cases: cell-based
# [1] = YFP quench plate reader assay, response to ABT-126; conditions: LX293T YFP reporter cells
# Procedure, shortened: (§1)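 Cells were seeded two days ahead, transfected the next day with mutant channel DNA, and washed in HEPES-buffered ECS on assay day. After 30 min at 37° C, iodide-containing ligand solution was added, and YFP quench tracked every 1.3 sec relative to baseline.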
# [2] = YFP quench plate reader assay, response to TC-5619; conditions: LX293T YFP reporter cells
# Procedure, shortened: as §1
# [3] = High throughput electrophysiology in HEK293T cells, acetylcholine
# Experimental: To confirm the EC50s determined by plate reader as well as develop a better understanding of maximum current flow, the engineered receptors were subjected to high throughput electrophysiology system, as described below. For HEK293T studies, cDNAs encoding ion channels were cloned into pcDNA3.1 using standard recombination techniques. HEK293T cells from Clontech (Lenti-X™ 293T Cell Line) were cultured in DMEM supplemented with 10% FBS and 1% Pen/Strep to 40-50% confluence using standard cell culture protocols, transfected with ion channel plasmids at a concentration of 18 μg per 15 cm dish using Fugene 6, and grown for an additional 24 hours. Cells were then assayed on a electrophysiological system (IonFluxHT and/or Mercury, Fluxion Biosciences) in which dose-response relationships may be assessed through a microfluidics-based platform for establishing whole cell configurations. […] Data were then analyzed off-line using custom Python scripts to convert data to .csv format, re-plot traces, and apply QC measurements to reject unstable recordings (i.e. thresholding based on access resistance and/or standard deviation in baseline, as well as artifact rejection). Peak currents were then calculated and population data were fit using a 4-parameter logistic equation as described by the Hill Equation. […]
# [4] = High throughput electrophysiology in HEK293T cells, AZD-0328; conditions: HEK293T cells, held at −60 mV
# Procedure, shortened: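 Engineered receptors transiently expressed in HEK293T cells, recorded 24 h post-transfection by automated whole-cell patch clamp at −60 mV, CsCl intracellular, pH 7.2 extracellular buffer. Progressive agonist doses applied for 1 s; peak currents fit to a 4-parameter Hill equation for EC50.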
# [5] = Evoked action potentials in transduced rat DRG neurons, RG-3487; conditions: RG-3487 (SA-2) at 3 μM
# Experimental: Using whole cell manual patch clamp electrophysiology in HEK293 cells and rat DRG neurons, the EC50 of the various engineered receptors disclosed herein to Ach and non-native ligands was measured. The rheobase shift was also measured in rat DRG neurons, which reflects the efficacy of the receptors. To calculate the rheobase, first, the amount of current that can produce an action potential was determined. Then the ligand was added, followed by a step wise increase in the current injected up to 700 pA. The current injected after addition of the ligand was divided by, the original current injected to obtain an action potential, to calculate the rheobase. The EC50 was calculated using the Hill equation with peak current measurements from escalating doses of ligand.
# Acetylcholine at 3.0 mM had no effect on evoked action potentials in transduced neurons (n=4) (FIG. 4B).
molecule,measurement,setting,value
"Y115D, L131Q in SEQ ID NO: 33: CR-11 (Chemogenic receptor-11): SEQ ID NO: 33 with substitutions Y115D and L131Q (protein, synthetic sequence of chimeric LGIC) MRCSPGGVWLALAASLLHVSLQGEFQRKLYKELVKNYNPLERPVANDSQPLTVYFSLSLLQIMDVDEKNQVLTTNIWLQMSWTDHYLQWNVSEYPGVKTVRFPDGQIWKPDILLDNSADERFDATFHTNVQVNSSGHCQYLPPGIFKSSCPMDLKNFPMDVQTCKLKFGSWSYGGWSLDLQMQEADISGYIPNGEWDLVGIPGKRSERFYECCKEPYPDVTFTVTMRRRMGYYLIQMYIPSLLIVILSWISFWINMDAAPARVGLGITTVLTMTTQSSGSRASLPKVSYVKAIDIWMAVCLLFVFSALLEYAAVNFVSRQHKELLRFRRKRRHHKSPMLNLFQEDEAGEGRFNFSAYGMGPACLQAKDGISVKGANNSNTTNPPPAPSKSPEEMRKLFIQRAKKIDKISRIGFPMAFLIFNMFYWIIYKIVRREDVHNQ","percent quench of YFP fluorescence, 50 nM abt",[1]; 50 nM ABT-126,−1.81%
same,"percent quench of YFP fluorescence, 100 nM abt",[1]; 100 nM ABT-126,−2.61%
same,"percent quench of YFP fluorescence, 300 nM abt",[1]; 300 nM ABT-126,−3.78%
same,"percent quench of YFP fluorescence, 1 uM abt",[1]; 1 uM ABT-126,−2.6%
same,"percent quench of YFP fluorescence, 1 nM brd",[2]; 1 nM TC-5619,0.92%
same,"percent quench of YFP fluorescence, 3 nM brd",[2]; 3 nM TC-5619,−4.65%
same,"percent quench of YFP fluorescence, 10 nM brd",[2]; 10 nM TC-5619,0.38%
same,"percent quench of YFP fluorescence, 30 nM brd",[2]; 30 nM TC-5619,8.96%
same,"percent quench of YFP fluorescence, 100 nM brd",[2]; 100 nM TC-5619,12.18%
same,"percent quench of YFP fluorescence, 300 nM brd",[2]; 300 nM TC-5619,−0.3%
same,"percent quench of YFP fluorescence, 1 uM brd",[2]; 1 uM TC-5619,45.47%
same,fold reduced potency to acetylcholine compared to wild type receptor,[3],over 500 fold
same,EC50 AZD-0328,[4],no activity
same,effect on current injection evoked action potentials,[5],reversibly inhibits
same,increase in the current required to elicit action potentials,[5]; n=7,~3 ×
